Experimental data taken from patent publication US20190085040A1.

Columns and labels:
[1] = biological target: transient receptor potential vanilloid 1 (TRPV1), rat, in primary neonatal cardiomyocytes (rat) (UniProt O35433); test: cell-based or functional assay
[2] = system: V1-cal

Chain of transient receptor potential vanilloid 1 (TRPV1), rat, in primary neonatal cardiomyocytes (rat) (O35433 whole entry): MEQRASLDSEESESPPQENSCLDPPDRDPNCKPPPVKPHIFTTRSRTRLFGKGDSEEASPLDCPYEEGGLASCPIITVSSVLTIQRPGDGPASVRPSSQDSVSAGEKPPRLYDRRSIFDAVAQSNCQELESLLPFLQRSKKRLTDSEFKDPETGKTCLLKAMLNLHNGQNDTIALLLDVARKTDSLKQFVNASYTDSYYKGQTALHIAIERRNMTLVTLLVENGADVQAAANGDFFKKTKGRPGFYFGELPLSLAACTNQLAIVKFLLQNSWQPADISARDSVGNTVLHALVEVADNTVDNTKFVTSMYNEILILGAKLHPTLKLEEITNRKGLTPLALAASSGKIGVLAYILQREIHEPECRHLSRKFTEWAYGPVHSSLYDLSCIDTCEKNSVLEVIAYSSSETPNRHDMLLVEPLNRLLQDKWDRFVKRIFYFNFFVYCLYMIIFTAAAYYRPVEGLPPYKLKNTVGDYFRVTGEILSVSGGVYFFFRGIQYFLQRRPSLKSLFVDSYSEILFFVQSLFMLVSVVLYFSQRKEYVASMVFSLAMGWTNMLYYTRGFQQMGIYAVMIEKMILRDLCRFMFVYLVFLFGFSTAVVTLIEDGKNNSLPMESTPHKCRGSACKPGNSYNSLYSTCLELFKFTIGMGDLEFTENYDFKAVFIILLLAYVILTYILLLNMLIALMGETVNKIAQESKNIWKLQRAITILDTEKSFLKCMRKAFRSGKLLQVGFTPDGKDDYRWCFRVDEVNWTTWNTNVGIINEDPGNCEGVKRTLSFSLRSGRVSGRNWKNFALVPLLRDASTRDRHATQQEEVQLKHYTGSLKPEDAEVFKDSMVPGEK

fold decrease in negative change in mitochondrial membrane potential caused by capsaicin (1 µM) in primary neonatal cardiomyocytes, with V1-cal (1 µM) given 10 minutes before [1] [fold]	Substance	calcineurin activity by free phosphate release from a calcineurin substrate (colorimetric, peptide at 10 µM, against TAT at 10 µM) [2]
10	calcineurin, endogenous in rat primary neonatal cardiomyocytes (enzyme)	–
–	recombinant calcineurin	In comparison to TAT, V1-cal reduced the ability for calcineurin to dephosphorylate a calcineurin substrate as measured by free phosphate release in vitro
